This note sets out measurements from PMC12416549 (2024).

T1: TNFR1 (Homo sapiens, UniProt P19438)
T1 chain: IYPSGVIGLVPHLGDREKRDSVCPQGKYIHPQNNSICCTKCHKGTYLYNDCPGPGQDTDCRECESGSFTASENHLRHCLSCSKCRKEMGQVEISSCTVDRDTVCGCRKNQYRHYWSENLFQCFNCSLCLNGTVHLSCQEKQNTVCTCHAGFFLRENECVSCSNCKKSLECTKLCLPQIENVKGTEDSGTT

B1: E5V (designed binder)
chain: SMEEVVEKAAKEYEKKKKEAIEKHLEKLKAKDKEAAERFLKELEEAAKEYAKDEAKTMSEEEAKRRAKKYKEKVLLSELSEEEQKEIKEAEEKLVRTILKYVEEAAK
B2: I98N (designed binder)
chain: B1 chain with V5E, I98N
B3: E34Y (designed binder)
chain: B1 chain with V5E, E34Y
B4: E103H (designed binder)
chain: B1 chain with V5E, E103H
B5: K69D (designed binder)
chain: B1 chain with V5E, K69D
B6: E44L (designed binder)
chain: B1 chain with V5E, E44L
B7: E54M (designed binder)
chain: B1 chain with V5E, E54M
B8: V74M (designed binder)
chain: B1 chain with V5E, V74M
B9: E44G (designed binder)
chain: B1 chain with V5E, E44G
B10: K11A (designed binder)
chain: B1 chain with V5E, K11A
B11: K56E (designed binder)
chain: B1 chain with V5E, K56E
B12: A63M (designed binder)
chain: B1 chain with V5E, A63M
B13: K23R (designed binder)
chain: B1 chain with V5E, K23R
B14: A35E (designed binder)
chain: B1 chain with V5E, A35E
B15: E92F (designed binder)
chain: B1 chain with V5E, E92F
B16: D32W (designed binder)
chain: B1 chain with V5E, D32W
B17: E37P (designed binder)
chain: B1 chain with V5E, E37P
B18: E54I (designed binder)
chain: B1 chain with V5E, E54I
B19: E60Q (designed binder)
chain: B1 chain with V5E, E60Q
B20: R38P (designed binder)
chain: B1 chain with V5E, R38P
B21: E45L (designed binder)
chain: B1 chain with V5E, E45L
B22: S1V (designed binder)
chain: B1 chain with S1V, V5E
B23: V6P (designed binder)
chain: B1 chain with V5E, V6P
B24: A90S (designed binder)
chain: B1 chain with V5E, A90S
B25: I87D (designed binder)
chain: B1 chain with V5E, I87D
B26: I98T (designed binder)
chain: B1 chain with V5E, I98T
B27: K15C (designed binder)
chain: B1 chain with V5E, K15C
B28: L75R (designed binder)
chain: B1 chain with V5E, L75R
B29: E82Y (designed binder)
chain: B1 chain with V5E, E82Y
B30: A51D (designed binder)
chain: B1 chain with V5E, A51D
B31: V102S (designed binder)
chain: B1 chain with V5E, V102S
B32: K31V (designed binder)
chain: B1 chain with V5E, K31V
B33: E91Y (designed binder)
chain: B1 chain with V5E, E91Y
B34: E72D (designed binder)
chain: B1 chain with V5E, E72D
B35: E26Y (designed binder)
chain: B1 chain with V5E, E26Y
B36: L99C (designed binder)
chain: B1 chain with V5E, L99C
B37: E26Q (designed binder)
chain: B1 chain with V5E, E26Q
B38: V102N (designed binder)
chain: B1 chain with V5E, V102N
B39: L76T (designed binder)
chain: B1 chain with V5E, L76T
B40: K23S (designed binder)
chain: B1 chain with V5E, K23S
B41: K17C (designed binder)
chain: B1 chain with V5E, K17C
B42: E92S (designed binder)
chain: B1 chain with V5E, E92S
B43: K48W (designed binder)
chain: B1 chain with V5E, K48W
B44: K71C (designed binder)
chain: B1 chain with V5E, K71C
B45: Y50E (designed binder)
chain: B1 chain with V5E, Y50E
B46: L40M (designed binder)
chain: B1 chain with V5E, L40M
B47: L99Y (designed binder)
chain: B1 chain with V5E, L99Y
B48: E62T (designed binder)
chain: B1 chain with V5E, E62T
B49: A36H (designed binder)
chain: B1 chain with V5E, A36H
B50: L75W (designed binder)
chain: B1 chain with V5E, L75W
B51: E91C (designed binder)
chain: B1 chain with V5E, E91C
B52: L94E (designed binder)
chain: B1 chain with V5E, L94E
B53: K17W (designed binder)
chain: B1 chain with V5E, K17W
B54: H24G (designed binder)
chain: B1 chain with V5E, H24G
B55: E60M (designed binder)
chain: B1 chain with V5E, E60M

Residue numbers refer to the chain shown, from its start. Names and notes keep the numbering of the source.

The target in this test is T1, TNFR1. The test can be described thus: yeast display SC50.
Turning to B1, the “apparent Kd (screen)” value came to 1.27 nM.
The value for B2 was 5.84 nM; that for B3 was 0.539 nM.
Next, B4: 0.446 nM.
For the molecule B5, the “apparent Kd (screen)” value is 1.4 nM.
Turning to B6, the “apparent Kd (screen)” value stood at 1.4 nM.
Next, B7: 2.48 nM; B8: 1.54 nM.
Turning to B9, the “apparent Kd (screen)” value turned out to be 2.48 nM.
The value for B10 was 0.446 nM.
The value for B11 was 1.86 nM; that for B12 was 9.41 nM; that for B13 was 0.49 nM.
Next, B14: 2.25 nM; B15: 13.8 nM; B16: 22.2 nM.
On to B17, for which the “apparent Kd (screen)” value is 0.49 nM.
With B18, the “apparent Kd (screen)” value was 13.8 nM.
Next, B19: 1.05 nM; B20: 11.4 nM.
The value for B21 was 1.69 nM.
With B22, the “apparent Kd (screen)” value worked out at 0.869 nM.
Next, B23: 0.446 nM; B24: 0.79 nM.
The value for B25 was 15.2 nM; that for B26 was 15.2 nM; that for B27 was 1.27 nM.
The value for B28 was 1.16 nM; that for B29 was 0.653 nM; that for B30 was 12.5 nM.
On to B31, for which the “apparent Kd (screen)” value came to 0.446 nM.
The value for B32 was 0.446 nM.
The value for B33 was 8.56 nM; that for B34 was 1.4 nM; that for B35 was 0.869 nM.
For the molecule B36, the “apparent Kd (screen)” value stood at 13.8 nM.
The value for B37 was 0.956 nM; that for B38 was 0.446 nM.
The value for B39 was 0.653 nM; that for B40 was 0.49 nM; that for B41 was 2.73 nM.
In the case of B42, the “apparent Kd (screen)” value was 7.07 nM.
The value for B43 was 2.73 nM; that for B44 was 0.446 nM; that for B45 was 9.41 nM.
For the molecule B46, the “apparent Kd (screen)” value stood at 0.593 nM.
Next, B47: 9.41 nM; B48: 1.54 nM.
The value for B49 was 0.49 nM.
The value for B50 was 0.446 nM; that for B51 was 13.8 nM.
B52: the “apparent Kd (screen)” value is 8.56 nM.
As to B53, the “apparent Kd (screen)” value amounted to 1.16 nM.
Consider B54, for which the “apparent Kd (screen)” value is 0.718 nM.
Next, B55: 0.49 nM.
